# According to PMC4625125:
# pKd: −log10 of the molar value.
# Test system: ScbR2
# Assay: EMSA
# Conditions: 'nearly 1 uM'; exact value in figure; not stated; modified EMSA as previously described (ref 23)
substance,measurement,value
PkasO1,pKd,6.00
